Data set [1] is described as follows: LC-MS assay of GH3 conjugation of IAA with Asp or Glu. The format is biochemical. The following applies: for kcat (hrs−1) IAA-Asp: conjugation of IAA with Asp by recombinant GH3 protein, IAA-Asp product by LC-MS; for kcat (hrs−1) IAA-Glu: conjugation of IAA with Glu by recombinant GH3 protein, IAA-Glu product by LC-MS. How it is done:
(§1) To detect and monitor the formation of acyl conjugates with 2,4-D or dicamba, a sensitive LC-MS method was developed using the respective amino acid conjugate standards. […] The reaction was performed at 30° C., 105 rpm, for 3 hours in buffer containing 20 mM Tris-HCl (pH 8.0), 5 mM MgCl2, 5 mM auxin (IAA, 2,4-D or dicamba), 5 mM ATP, 5 mM Asp or Glu, 1 mM DTT and 44 to 164 μg/mL purified GH3 protein in 100 μL reaction. After 3 hours of reaction, 400 μL 100% MeOH was added to the reaction mixture for protein precipitation. The supernatant was diluted 20× in water and then analyzed by LC-MS (AB Sciex 4000 QTrap coupled with Shimadzu Nexera UHPLC) using a Phenomenex Luna 3 μm Phenyl-Hexyl (00B-4256-Y0) column. The concentration of the conjugates was calculated based on the standards. Kinetic parameters were estimated by fitting initial velocity values to the Michaelis-Menten equation.
(§2) The GH3 superfamily conjugase activity analysis of IAA, 2,4-D or dicamba with Asp or Glu was done using LC-MS to analyze the final conjugate products as described in Example 1. Protein sequences of GH3 homologs (Table 3) were obtained from public databases (NCBI, http://www.ncbi.nlm.nih.gov/) by Blast analysis of AtGH3.17 protein sequence (accession # Q9FZ87). Coding sequences were designed for optimal expression in E. coli based on the protein sequences and synthesized. Synthesized coding sequences along with N-term his-tag coding sequences were cloned into a pET24a-based E. coli expression vector. The E. coli expression vectors were transformed into OverExpress C41(DE3) cells (Lucigen) for protein expression. Recombinant E. coli strains were inoculated into 5 ml LB media supplemented with 40 mg/L kanamycin and cultured overnight at 37° C. The overnight culture (0.5 mL) was inoculated into 50 mL LB medium plus 40 mg/L kanamycin and grown at 30° C. until OD600 reached 0.6. The cultures were induced with 0.2 mM IPTG at 16° C., 230 rpm overnight. Cells were harvested by centrifugation at 7,000 rpm for 10 mins. The cell pellet from 50 mL of cell culture was frozen and thawed twice and then lysed in 800 μL lysis buffer A (150 mM NaCl, 50 mM Tris-HCl pH 8.0, 5 mM MgCl2, 10% glycerol) plus 20 mM imidazole, 1 mM DTT, 0.2 mg/ml lysozyme, 1/200 protease inhibitor cocktail (EMD set3, EDTA free) and 1/2000 endonuclease. Lysate was then centrifuged at 13,000 rpm for 30 min at 4° C. Supernatant was loaded onto 200 μL Ni-NTA columns pre-equilibrated with buffer A with 20 mM imidazole at 4° C. Each column was then washed with (1) 2×800 μL of buffer A with 10 mM imidazole, (2) 2×800 μL of buffer A with 20 mM imidazole and (3) 2×200 μL of buffer A with 50 mM imidazole. Protein was eluted with 200 μL of buffer A with 250 mM imidazole. The concentration was measured by Bradford assay. Purified protein was used in conjugation reaction assays as described in example 1.

A short description of data set [2]: LC-MS assay of GH3 conjugation of 2,4-D with Asp or Glu. The format is biochemical. The following applies: 5 mM 2,4-D substrate; for kcat (hrs−1) 2,4-D-Asp: conjugation of 2,4-D with Asp by recombinant GH3 protein, 2,4-D-Asp product by LC-MS; for kcat (hrs−1) 2,4-D-Glu: conjugation of 2,4-D with Glu by recombinant GH3 protein, 2,4-D-Glu product by LC-MS. How it is done:
as §1, §2

B1: SmXP_002981880: GH3 protein, accession XP_002981880 (protein, listed as Selaginella moellendorffii)
chain: MAASAIAEFEDACKNAASIQEELLLGILRKNACCEYLQKYGSPLTVAAFKSQVPVIGYDDIRSDLERIAGGDRGQILCHDPITSFFTSSGTSSGKNKNIPATYENTVSVVKVLESSYAYKTNYFDLGKGRSVSLLYFKDLHATKSGLVFGPVTAHGIRSTRFRQVWRSSRTTPYEVLVAASDFRELTYCHLLCALLQRHEVEQVECMYAYSICEALRLFQNEYWEELCNDIRTASLSKTKVMDPKLRKAFERAGVFRSKCGNAMEADKIFKICSNESWSGILPLLFPKAKLVSAVVTGAMTHYVPTLSFYAGDQLPIVGQGFFSSEGGIGINIDPLSPPEDVIYTVTPRSLYYEFLPLGATEALSMHEVVIGELYEILVTNFAGLYRCRMGDVVQITSFFHGAPQMAYHHRKNAVMCINNETVDEQMLQNVVNKVSKDAGVEVLDFMIYGDPAAVPPSYTIFWELGNAKDYSKTQVLEQCCANVLKSFNPEHTRKGTDGLIDSFELVIVKKGTFERLMEEAVKNGASPAQYKTPRCVASSRILEALNSGRVHSYKSSAMSKVN
As for B1, in data set [1], the “kcat (hrs−1) IAA-Asp” value came out at 1.475 h⁻¹ and the “kcat (hrs−1) IAA-Glu” value came to 1.759 h⁻¹. Moreover, the “IAA conjugation activity with Asp or Glu” value in data set [1] (result in words) is “can also conjugate IAA to Asp and Glu”. In data set [2], the “kcat (hrs−1) 2,4-D-Asp” value stood at 0.144 h⁻¹ and the “kcat (hrs−1) 2,4-D-Glu” value stood at 0.739 h⁻¹.

B2: SbEES16535: GH3 protein, accession EES16535 (protein)
chain: MAHTPAMENSYVQVHHLATSMAIHTHKPFLAPPKHVHLAFHSPTSAPSRLLATTRSRPGLSQPAAMMAETDADKLRFIEEVTADVAAVQERVLAEILSRNADAEYLSTRCGGATDRATFRAKVPMVTYEDLQPYILRIAHGDRSPILSGSGYPVSELLTSSGAGDRKLIPVVDDDHDRHHRLHSLVGAVVNQYVPGLDKGSGLYFLFVKSETTTPGGLPARTILTRIFTSDGVWKLPYNPRRGLTSPAAAVVCEDTFQSMYTQMLCGLCHRHSVLRVGAAFASGVLRAIRFFQRNWPQLAADIDAGTITDRVTDHVLRQALAGVLTQPDPDLARVVRSEGSKADDGADMAGIIARLWPNTKYVHAVATGSMAHYVPALNHYSGGLPIVSTAYFSSECSVGINLRPMCDPSEVSYTVMPNMAYFEFLPTDDDDATASATSQLVELAGVEVGREYELVVTTYSGLCRYRVGDVLRVTGFHNTAPQLRFVRRRNAVLSVESDKTDEVELQRAVDRASAALLRPLGAAVADYTARTCAETVPGHYVVYWELQLPLGAADVVVDGGDVLDRCCLEMEEALSSVYRQSRVADGTVGPLEIRVVRPGTFEELADHAVARGASVGQYKVPRCVTAPPDIELLDSRVVSNHFSPALPKWVPG
modifications: Sorghum bicolor
As for B2, in data set [1], the “kcat (hrs−1) IAA-Asp” value amounted to 0.000 h⁻¹ and the “kcat (hrs−1) IAA-Glu” value turned out to be 0.000 h⁻¹. Besides, in data set [1] (result in words), the “IAA conjugation activity with Asp or Glu” value was “IAA-inactive”. In data set [2], the “kcat (hrs−1) 2,4-D-Asp” value turned out to be 0.000 h⁻¹ and the “kcat (hrs−1) 2,4-D-Glu” value was found to be 0.000 h⁻¹.

B3: AlGH3-12: GH3 protein, accession XP_002871561 (protein, listed as Arabidopsis lyrata)
chain: MKPISDINESFEKQLKYLTSDVKQIQDNLLEEIITPNTKTEYLQRFLIGRFDKDLFKKNVPIVTYEDIKPYLDRVVNGESSDVISARPITGFLLSSGTSGGAQKMMPWNNKYLDNLTFIYDLRMQVITKHVKGVEEGKGMMFLFTKQESMTPSGLPARVATSSYFKSDYFKHRPSNWYYSYTSPDEVILCPNNTQSLYCHLLCGLVQRDEVVRTGSIFASVMVRAIEVLKNSWEELCSNIRSGHLSNWVTDLGCQSSVSLVLGGPRPELADTIEEICNQKSWKGIVKRLWPNTKYIETVVTGSMGQYVPMLNYYCNDLPLVSTTYGSSETTFGINLDPLCKPEDVSYTFMPNMSYFEFIPMDGDNNDVVDLEDVKLGCTYEPVVTNFAGLYRMRVGDIVLVTGFYNNAPQFKFVRRENVVLSIDSDKTNEEDLFKAVSQAKLVLESSGLDLKDFTSYADTSTFPGHYVVYLEVDTKEGEEKKTAQFELDEEALSMCCLVMEESLDNVYKRCRFKDGSIGPLEIRVVRQGTFISLMDFFISQGASTGQYKTPRCIKSGKALQVLETCVVAKFFSS
With B3, the “Conjugation of Glu to IAA” value in data set [1] (result in words) is “can also conjugate Glu to IAA”.

B4: AtGH3-17: GH3 protein, accession Q9FZ87 (protein, listed as Arabidopsis thaliana)
chain: MIPSYDPNDTEAGLKLLEDLTTNAEAIQQQVLHQILSQNSGTQYLRAFLDGEADKNQQSFKNKVPVVNYDDVKPFIQRIADGESSDIVSAQPITELLTSSGTSAGKPKLMPSTAEELERKTFFYSMLVPIMNKYVDGLDEGKGMYLLFIKPEIKTPSGLMARPVLTSYYKSQHFRNRPFNKYNVYTSPDQTILCQDSKQSMYCQLLCGLVQRSHVLRVGAVFASAFLRAVKFLEDHYKELCADIRTGTVTSWITDSSCRDSVLSILNGPNQELADEIESECAEKSWEGILRRIWPKAKYVEVIVTGSMAQYIPTLEFYSGGLPLVSTMYASSECYFGINLNPLCDPADVSYTLLPNMAYFEFLPVDDKSHEEIHFATHSNTDDDDDALKEDLIVNLVNVEVGQYYEIVITTFTGLYRYRVGDILKVTGFHNKAPQFRFVQRRNVVLSIDTDKTSEEDLLNAVTQAKLNHLQHPSSLLLTEYTSYADTSSIPGHYVLFWELKPRHSNDPPKLDDKTMEDCCSEVEDCLDYVYRRCRNRDKSIGPLEIRVVSLGTFDSLMDFCVSQGSSLNQYKTPRCVKSGGALEILDSRVIGRFFSKRVPQWEPLGLDS
In the case of B4, in data set [1] (IAA with Asp), the “kcat, conjugation of IAA with Asp” value was 0.0144 s⁻¹. Further, the “kcat, conjugation of IAA with Glu” value in data set [1] (IAA with Glu) was 0.241 s⁻¹. In addition, in data set [1], the “kcat (hrs−1) IAA-Asp” value came to 51.838 h⁻¹ and the “kcat (hrs−1) IAA-Glu” value is 867.723 h⁻¹. Besides, in data set [2], the “kcat (hrs−1) 2,4-D-Asp” value was found to be 0.424 h⁻¹ and the “kcat (hrs−1) 2,4-D-Glu” value was 0.988 h⁻¹.

B5: AtGH3-3: GH3 protein, accession O22190 (protein, listed as Arabidopsis thaliana)
chain: MTVDSALRSPMMHSPSTKDVKALRFIEEMTRNVDFVQKKVIREILSRNSDTEYLKRFGLKGFTDRKTFKTKVPVVIYDDLKPEIQRIANGDRSMILSSYPITEFLTSSGTSAGERKLMPTIDEDMDRRQLLYSLLMPVMNLYVPGLDKGKALYFLFVKTESKTPGGLPARPVLTSYYKSEQFKRRPNDPYNVYTSPNEAILCPDSSQSMYTQMLCGLLMRHEVLRLGAVFASGLLRAIGFLQTNWKELADDISTGTLSSRISDPAIKESMSKILTKPDQELADFITSVCGQDNSWEGIITKIWPNTKYLDVIVTGAMAQYIPMLEYYSGGLPMACTMYASSESYFGINLKPMCKPSEVSYTIMPNMAYFEFLPHHEVPTEKSELVELADVEVGKEYELVITTYAGLNRYRVGDILQVTGFYNSAPQFKFVRRKNVLLSIESDKTDEAELQSAVENASLLLGEQGTRVIEYTSYAETKTIPGHYVIYWELLVKDQTNPPNDEVMARCCLEMEESLNSVYRQSRVADKSIGPLEIRVVKNGTFEELMDYAISRGASINQYKVPRCVSFTPIMELLDSRVVSTHFSPALPHWSPERRR
Consider B5, for which, in data set [1], the “kcat (hrs−1) IAA-Asp” value was 0.000 h⁻¹ and the “kcat (hrs−1) IAA-Glu” value amounted to 0.000 h⁻¹. The “IAA conjugation activity with Asp or Glu” value in data set [1] (result in words) is “IAA-inactive”. Moreover, in data set [2], the “kcat (hrs−1) 2,4-D-Asp” value worked out at 0.000 h⁻¹ and the “kcat (hrs−1) 2,4-D-Glu” value is 0.000 h⁻¹.

B6: OsGH3-10: GH3 protein, accession Q6ZLA7 (protein, listed as Oryza sativa)
chain: MAAKGISTIGAASRSLSSSLMAAAKEPDVENLRLIEELTSNVDAVQERVLAEILGRNADAEYLDKCGLDASDTDRATFRAKVPVASYDDLKPYVKRIANGDRSPILSTHPIIEFFTSSGTSAGERKLMPIVTDEMARREVLSSLATSVLNVYVPGLHTGKGLYFLFARSETKTPGGLTAQPALTSVYKSEHFKRAYAYTSPMAAILCEDASQSMYAQMLCGLCQRHDVLRVGAVFAAALVRAIRFLQLNWAQLAADIETGELNPRVTDPSDRECSRGDWTGIVTRLWPKTKCLNVVVTGVMAQYIPTLQYYSGGLPIVSGMYASSECFFGLNLRPLCGPSEVSYTIMPNTAYFEFLPVGEAVDASNLVELARVEDGREYEVVVTTYAGLNRYRVGDVLCVTGFHNAAPQFRFVRRQSVLLSIEADKTDEAELQRAVERASSALLRPRGASIVEYTSRACTERVPGHFSPALPHWTLAP
For B6, in data set [1], the “kcat (hrs−1) IAA-Asp” value was 0.000 h⁻¹ and the “kcat (hrs−1) IAA-Glu” value came out at 0.000 h⁻¹. Also, the “IAA conjugation activity with Asp or Glu” value in data set [1] (result in words) was “IAA-inactive”. For the same molecule, in data set [2], the “kcat (hrs−1) 2,4-D-Asp” value stood at 0.000 h⁻¹ and the “kcat (hrs−1) 2,4-D-Glu” value is 0.000 h⁻¹.

The values above are taken from patent publication US20150351390A1, “COMPOSITIONS AND METHODS FOR AUXIN-ANALOG CONJUGATION” (PIONEER HI-BRED INTERNATIONAL, INC., priority 2012, published 2015).
